Primed or numbered codes have the meaning given here. Side chains are listed from the residue outwards. * marks the point of attachment. PEG8″ = PEG8 spacer conjugated to the Lys side chain; Cyclohexanecarbonyl = O=C(C1CCCCC1)*; Palmitoyl = CCCCCCCCCCCCCCCC(=O)*; Me3Gly = C[N+](C)(C)CC(=O)*; Isovaleryl = CC(C)CC(=O)*; PEG2′ = not defined here; PEG3′ = not defined here; PEG4′ = not defined here
The binders below were run against T1, human ferroportin (SLC40A1) fused in frame with GFP, stably expressed in HEK293 cells (human, UniProt Q9NP59 1-571) (assay: cell-based or functional assay).
T1 sequence (looked up): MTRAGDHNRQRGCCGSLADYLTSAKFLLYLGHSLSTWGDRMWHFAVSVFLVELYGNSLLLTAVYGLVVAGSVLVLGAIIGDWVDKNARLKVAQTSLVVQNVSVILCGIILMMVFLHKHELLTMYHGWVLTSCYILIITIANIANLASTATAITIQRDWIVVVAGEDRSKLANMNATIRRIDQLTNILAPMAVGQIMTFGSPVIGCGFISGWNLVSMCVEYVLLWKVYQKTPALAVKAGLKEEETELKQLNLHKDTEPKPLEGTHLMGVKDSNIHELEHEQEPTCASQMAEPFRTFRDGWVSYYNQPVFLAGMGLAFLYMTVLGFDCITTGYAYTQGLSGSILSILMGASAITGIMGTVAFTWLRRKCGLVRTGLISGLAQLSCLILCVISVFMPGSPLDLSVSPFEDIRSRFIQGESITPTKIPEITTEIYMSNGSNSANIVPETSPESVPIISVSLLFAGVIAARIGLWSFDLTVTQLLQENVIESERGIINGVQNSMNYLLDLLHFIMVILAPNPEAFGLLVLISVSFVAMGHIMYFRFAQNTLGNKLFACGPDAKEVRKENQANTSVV

Isovaleryl-DTHFPCIKFGPRSK(Me3Gly)GWVCK-NH2 (cysteine pairing not given here) [Compound 157] and Isovaleryl-DTHFPCIKFGPRSKGWVCK(Me3Gly)-NH2 (cysteine pairing not given here) [Compound 159] are within 1.5-fold of each other in “Potency EC50” value: 18 nM for the first, 17 nM for the second.

First: {Isovaleryl-PEG3′}-DTHFPCIKFGPRSKGWVCK-NH2 (cysteine pairing not given here) [Compound 161]
Second: H-VDTHFPCIKFGPRSKGWVCK-NH2 (cysteine pairing not given here) [Compound 164]
The “Potency EC50” value of the first is 4.6-fold higher: 666 nM for the first, 146 nM for the second.

Compared with Cyclohexanecarbonyl-DTHFPCIKFGPRSKGWVCK-NH2 (not fully specified (bridges); cysteine pairing not given here) [Compound 168], Isovaleryl-DTHFPCIIFGPRSKGWECK-NH2 (not fully specified (bridges); cysteine pairing not given here) [Compound 172] is 2-fold lower in “Potency EC50” value: 30 nM for the first, 15 nM for the second.

Isovaleryl-DTHFPICIFGPRSK(PEG8″)GWVC-NH2 (not fully specified (bridges); cysteine pairing not given here) [Compound 176] and Isovaleryl-DTHFPICIFGPRSK(PEG4′)GWVC-NH2 (not fully specified (bridges); cysteine pairing not given here) [Compound 177] are the same in “Potency EC50” value: 6 nM for the first, 6 nM for the second.

Isovaleryl-DTHFPCIIFGPRSRGWVCK(PEG8″)-NH2 (not fully specified (bridges); cysteine pairing not given here) [Compound 178] and Isovaleryl-DTHFPCIIFGPRSRGWVCK(PEG4′)-NH2 (not fully specified (bridges); cysteine pairing not given here) [Compound 179] are within 1.5-fold of each other in “Potency EC50” value: 3 nM for the first, 4 nM for the second.

Compared with Isovaleryl-DTHFPCIIFGPRSRGWVCK(PEG2′)-NH2 (not fully specified (bridges); cysteine pairing not given here) [Compound 180], Isovaleryl-DTHFPCIKFEPRSKGWVCK-NH2 (not fully specified (bridges); cysteine pairing not given here) [Compound 181] is 1.7-fold higher in “Potency EC50” value: 9 nM for the first, 15 nM for the second.

Compared with Isovaleryl-DTHFPCIKFEPRSKGWCK-NH2 (not fully specified (bridges); cysteine pairing not given here) [Compound 183], Isovaleryl-DTHFPCIKFGPRSCK-NH2 (cysteine pairing not given here) [Compound 188] is 1.8-fold higher in “Potency EC50” value: 17 nM for the first, 30 nM for the second.

First: Isovaleryl-DTHFPCIKFC-NH2 (cysteine pairing not given here) [Compound 193]
Second: Isovaleryl-DTHFPCIK(Palmitoyl)FGPRSKGWVCK-NH2 (cysteine pairing not given here) [Compound 194]
The “Potency EC50” value of the first is 20-fold higher: 80 nM for the first, 4 nM for the second.

Isovaleryl-DTHFPCIK([PEG3′-Palmitoyl])FGPRSKGWVCK-NH2 (cysteine pairing not given here) [Compound 199] and DTHFPCIKFKPRSKGWVCK (N-terminal isovaleric acid; PEG3-Palm on side chain of Lys 10; C-terminal amide) [Compound 200] are within 1.5-fold of each other in “Potency EC50” value: 7 nM for the first, 6 nM for the second.

Isovaleryl-DTHFPCIKFGPK([PEG3′-Palmitoyl])SKGWVCK-NH2 (cysteine pairing not given here) [Compound 201] and Isovaleryl-DTHFPCIKFGPRSK([PEG3′-Palmitoyl])GWVCK-NH2 (cysteine pairing not given here) [Compound 202] are within 1.5-fold of each other in “Potency EC50” value: 4 nM for the first, 3 nM for the second.

First: Isovaleryl-DTHFPCIKFGPRSKGWVCK([PEG3′-Palmitoyl])-NH2 (cysteine pairing not given here) [Compound 203]
Second: H-DTHFPCIK(Isovaleryl)FGPRSKGWVCK-NH2 (cysteine pairing not given here) [Compound 204]
The “Potency EC50” value of the first is lower: 4 nM for the first, over 300 nM for the second.

DTHFPCIKFKPRSKGWVCK (not fully specified; IVA on side chain of Lys 10; C-terminal amide) [Compound 205] and H-DTHFPCIK([PEG3′-Isovaleryl])FGPRSKGWVCK-NH2 (cysteine pairing not given here) [Compound 209] cannot be ordered by “Potency EC50” value: over 300 nM for the first, 342 nM for the second.

DTHFPCIKFKPRSKGWVCK (PEG3-IVA on side chain of Lys 10; C-terminal amide) [Compound 210] and H-DTHFPCIKFGPK([PEG3′-Isovaleryl])SKGWVCK-NH2 (cysteine pairing not given here) [Compound 211] cannot be ordered by “Potency EC50” value: 457 nM for the first, over 300 nM for the second.

Compared with H-DTHFPCIKFGPRSK([PEG3′-Isovaleryl])GWVCK-NH2 (cysteine pairing not given here) [Compound 212], H-DTHFPCIKFGPRSKGWVCK([PEG3′-Isovaleryl])-NH2 (cysteine pairing not given here) [Compound 213] is lower in “Potency EC50” value: over 300 nM for the first, 233 nM for the second.

With Isovaleryl-DTHFPCIKFEPRSKKWVCK-NH2 (not fully specified (bridges); cysteine pairing not given here) [Compound 214] the “Potency EC50” value was 15 nM.

H-DTHFPCIKFGPRSKGWVCK-NH2 (cysteine pairing not given here) [Compound 215] and Palmitoyl-DTHFPCIKFGPRSKGWVCK-NH2 (cysteine pairing not given here) [Compound 216] cannot be ordered by “Potency EC50 (nM)” value: over 1000 nM for the first, over 1000 nM for the second.

For {Palmitoyl-PEG3′}-DTHFPCIKFGPRSKGWVCK-NH2 (cysteine pairing not given here) [Compound 217], the “Potency EC50 (nM)” value was over 1000 nM.

Reference: US20250340608A1 (PROTAGONIST THERAPEUTICS, published 2025)
